According to patent US20260242735A1 (UNIVERSIT T BASEL, published 2026):

B1: Refmab #6 (antibody, V domains shown)
VH: QVQLQQPGAEVVKPGASVKMSCKASGYTFTSYYIHWIKQTPGQGLEWVGVIYPGNDDISYNQKFQGKATLTADKSSTTAYMQLSSLTSEDSAVYYCAREVRLRYFDVWGQGTTVTVSS
VL: EIVLTQSPGSLAVSPGERVTMSCKSSQSVFFSSSQKNYLAWYQQIPGQSPRLLIYWASTRESGVPDRFTGSGSGTDFTLTISSVQPEDLAIYYCHQYLSSRTFGQGTKLEIK
notes: Full-length format is human IgG1 Fc silent (PG-LALA); also made as Fab; The alanine scan used IgG or Fab
B2: Refmab #6 (antibody, human IgG1, V domains shown)
VH: QVQLQQPGAEVVKPGASVKMSCKASGYTFTSYYIHWIKQTPGQGLEWVGVIYPGNDDISYNQKFQGKATLTADKSSTTAYMQLSSLTSEDSAVYYCAREVRLRYFDVWGQGTTVTVSS
VL: EIVLTQSPGSLAVSPGERVTMSCKSSQSVFFSSSQKNYLAWYQQIPGQSPRLLIYWASTRESGVPDRFTGSGSGTDFTLTISSVQPEDLAIYYCHQYLSSRTFGQGTKLEIK
B3: Refmab #6 (antibody, V domains shown)
VH: QVQLQQPGAEVVKPGASVKMSCKASGYTFTSYYIHWIKQTPGQGLEWVGVIYPGNDDISYNQKFQGKATLTADKSSTTAYMQLSSLTSEDSAVYYCAREVRLRYFDVWGQGTTVTVSS
VL: EIVLTQSPGSLAVSPGERVTMSCKSSQSVFFSSSQKNYLAWYQQIPGQSPRLLIYWASTRESGVPDRFTGSGSGTDFTLTISSVQPEDLAIYYCHQYLSSRTFGQGTKLEIK
notes: The alanine scan used IgG or Fab
B4: Refmab #5 (antibody, V domains shown)
VH: QVQLVQSGAEVKKPGASVKVSCKASGYTFTNYDINWVRQAPGQGLEWIGWIYPGDGSTKYNEKFKAKATLTADTSTSTAYMELRSLRSDDTAVYYCASGYEDAMDYWGQGTTVTVSS
VL: DIQMTQSPSSLSASVGDRVTINCKASQDINSYLSWFQQKPGKAPKTLIYRANRLVDGVPSRFSGSGSGQDYTLTISSLQPEDFATYYCLQYDEFPLTFGGGTKVEIK
notes: as for B1
B5: Refmab #5 (antibody, V domains shown)
VH: QVQLVQSGAEVKKPGASVKVSCKASGYTFTNYDINWVRQAPGQGLEWIGWIYPGDGSTKYNEKFKAKATLTADTSTSTAYMELRSLRSDDTAVYYCASGYEDAMDYWGQGTTVTVSS
VL: DIQMTQSPSSLSASVGDRVTINCKASQDINSYLSWFQQKPGKAPKTLIYRANRLVDGVPSRFSGSGSGQDYTLTISSLQPEDFATYYCLQYDEFPLTFGGGTKVEIK
notes: as for B3
B6: Refmab #5 (antibody, human IgG1, V domains shown)
VH: QVQLVQSGAEVKKPGASVKVSCKASGYTFTNYDINWVRQAPGQGLEWIGWIYPGDGSTKYNEKFKAKATLTADTSTSTAYMELRSLRSDDTAVYYCASGYEDAMDYWGQGTTVTVSS
VL: DIQMTQSPSSLSASVGDRVTINCKASQDINSYLSWFQQKPGKAPKTLIYRANRLVDGVPSRFSGSGSGQDYTLTISSLQPEDFATYYCLQYDEFPLTFGGGTKVEIK

Key:
human CD33 R109A = human CD33 R109A (human, UniProt P20138 18-364); assay: alanine scan, flow cytometry, HEK293-T;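 also: antibody binding to each alanine-substituted CD33 mutant expressed transiently in HEK293-T, read as fluorescence minus background, mean of duplicates, relative to wild-type CD33 set as 100%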
human CD33 D95A = human CD33 D95A (human, UniProt P20138 18-364); assay: alanine scan, flow cytometry, HEK293-T;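 also: antibody binding to each alanine-substituted CD33 mutant expressed transiently in HEK293-T, read as fluorescence minus background, mean of duplicates, relative to wild-type CD33 set as 100%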
human CD33 M120A = human CD33 M120A (human, UniProt P20138 18-364); assay: alanine scan, flow cytometry, HEK293-T;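 also: antibody binding to each alanine-substituted CD33 mutant expressed transiently in HEK293-T, read as fluorescence minus background, mean of duplicates, relative to wild-type CD33 set as 100%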
human CD33 M120L = human CD33 M120L (human, UniProt P20138 18-364); assay: flow cytometry, transfected cells, IgG;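 also: CD33 point mutants transiently expressed in HEK293-T cells, antibody binding read by fluorescence, background subtracted and normalized to wild-type CD33 as 100%, duplicates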
Protocol: (§1) An alanine scan on human CD33 was performed to the determine the residues on CD33 that are involved in binding to the antibodies investigated. […] Briefly, a mutation library of CD33 was created by high-throughput, site-directed mutagenesis. Each residue was individually mutated to alanine, with alanine codons mutated to serine. The mutant library was arrayed in 384-well microplates and transiently transfected into HEK293-T. Following transfection, cells were incubated with the indicated antibodies (IgG or Fab) at concentrations pre-determined using an independent immunofluorescence titration curve on wild type CD33. […] Binding of each antibody to each mutant clone was determined in duplicates. For each point, background fluorescence was subtracted from the raw data, which were then normalized to antibody reactivity with wild type CD33.
(§2) Antibodies were screened for binding to the human CD33 variants in IgG format. […] For each mutation, background fluorescence was subtracted from the raw data, which were then normalized to antibody reactivity with wild-type CD33.

human CD33 P132V = human CD33 P132V (human, UniProt P20138 18-364); assay: flow cytometry, transfected cells, IgG;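 also: CD33 point mutants transiently expressed in HEK293-T cells, antibody binding read by fluorescence, background subtracted and normalized to wild-type CD33 as 100%, duplicates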
Protocol: as §1, §2

human CD33 P132K = human CD33 P132K (human, UniProt P20138 18-364); assay: flow cytometry, transfected cells, IgG;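 also: CD33 point mutants transiently expressed in HEK293-T cells, antibody binding read by fluorescence, background subtracted and normalized to wild-type CD33 as 100%, duplicates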
Protocol: as §1, §2

human CD33 S131I = human CD33 S131I (human, UniProt P20138 18-364); assay: flow cytometry, transfected cells, IgG;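 also: CD33 point mutants transiently expressed in HEK293-T cells, antibody binding read by fluorescence, background subtracted and normalized to wild-type CD33 as 100%, duplicates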
Protocol: as §1, §2

human CD33 S131N = human CD33 S131N (human, UniProt P20138 18-364); assay: flow cytometry, transfected cells, IgG
Protocol: as §1, §2

human CD33 R122S = human CD33 R122S (human, UniProt P20138 18-364); assay: flow cytometry, transfected cells, IgG
Protocol: as §1, §2

human CD33 P132F = human CD33 P132F (human, UniProt P20138 18-364); assay: flow cytometry, transfected cells, IgG
Protocol: as §1, §2

human CD33 S131M = human CD33 S131M (human, UniProt P20138 18-364); assay: flow cytometry, transfected cells, IgG
Protocol: as §1, §2

human CD33 R122G = human CD33 R122G (human, UniProt P20138 18-364); assay: flow cytometry, transfected cells, IgG
Protocol: as §1, §2

human CD33 D51Y = human CD33 D51Y (human, UniProt P20138 18-364); assay: flow cytometry, transfected cells, IgG
Protocol: as §1, §2

human CD33 L134I = human CD33 L134I (human, UniProt P20138 18-364); assay: flow cytometry, transfected cells, IgG
Protocol: as §1, §2

human CD33 K52Y = human CD33 K52Y (human, UniProt P20138 18-364); assay: flow cytometry, transfected cells, IgG
Protocol: as §1, §2

human CD33 R122F = human CD33 R122F (human, UniProt P20138 18-364); assay: flow cytometry, transfected cells, IgG
Protocol: as §1, §2

human CD33 P132Y = human CD33 P132Y (human, UniProt P20138 18-364); assay: flow cytometry, transfected cells, IgG
Protocol: as §1, §2

human CD33 S131G = human CD33 S131G (human, UniProt P20138 18-364); assay: flow cytometry, transfected cells, IgG
Protocol: as §1, §2

human CD33 L134T = human CD33 L134T (human, UniProt P20138 18-364); assay: flow cytometry, transfected cells, IgG
Protocol: as §1, §2

human CD33 P132H = human CD33 P132H (human, UniProt P20138 18-364); assay: flow cytometry, transfected cells, IgG
Protocol: as §1, §2

human CD33 R122I = human CD33 R122I (human, UniProt P20138 18-364); assay: flow cytometry, transfected cells, IgG
Protocol: as §1, §2

human CD33 K52E = human CD33 K52E (human, UniProt P20138 18-364); assay: flow cytometry, transfected cells, IgG
Protocol: as §1, §2

human CD33 S131D = human CD33 S131D (human, UniProt P20138 18-364); assay: flow cytometry, transfected cells, IgG
Protocol: as §1, §2

human CD33 S131W = human CD33 S131W (human, UniProt P20138 18-364); assay: flow cytometry, transfected cells, IgG
Protocol: as §1, §2

human CD33 D51N = human CD33 D51N (human, UniProt P20138 18-364); assay: flow cytometry, transfected cells, IgG
Protocol: as §1, §2

human CD33 M120V = human CD33 M120V (human, UniProt P20138 18-364); assay: flow cytometry, transfected cells, IgG
Protocol: as §1, §2

human CD33 S131T = human CD33 S131T (human, UniProt P20138 18-364); assay: flow cytometry, transfected cells, IgG
Protocol: as §1, §2

human CD33 P132Q = human CD33 P132Q (human, UniProt P20138 18-364); assay: flow cytometry, transfected cells, IgG
Protocol: as §1, §2

human CD33 Y127E = human CD33 Y127E (human, UniProt P20138 18-364); assay: flow cytometry, transfected cells, IgG
Protocol: as §1, §2

human CD33 L134Q = human CD33 L134Q (human, UniProt P20138 18-364); assay: flow cytometry, transfected cells, IgG
Protocol: as §1, §2

human CD33 K52L = human CD33 K52L (human, UniProt P20138 18-364); assay: flow cytometry, transfected cells, IgG
Protocol: as §1, §2

human CD33 K52S = human CD33 K52S (human, UniProt P20138 18-364); assay: flow cytometry, transfected cells, IgG
Protocol: as §1, §2

human CD33 K52I = human CD33 K52I (human, UniProt P20138 18-364); assay: flow cytometry, transfected cells, IgG
Protocol: as §1, §2

human CD33 S131Y = human CD33 S131Y (human, UniProt P20138 18-364); assay: flow cytometry, transfected cells, IgG
Protocol: as §1, §2

human CD33 K52D = human CD33 K52D (human, UniProt P20138 18-364); assay: flow cytometry, transfected cells, IgG
Protocol: as §1, §2

human CD33 S124A = molecular target: T1, human CD33 S124A (human, UniProt P20138 18-364); assay: alanine scan, flow cytometry, HEK293-T;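 also: antibody binding to each alanine-substituted CD33 mutant expressed transiently in HEK293-T, read as fluorescence minus background, mean of duplicates, relative to wild-type CD33 set as 100%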
T1 construct: alanine scan clone, transfected HEK293-T

human CD33 F177A = molecular target: T2, human CD33 F177A (human, UniProt P20138 18-364); assay: alanine scan, flow cytometry, HEK293-T
T2 construct: alanine scan clone, transfected HEK293-T
T2 sequence (P20138 18-364 F177A limits assumed): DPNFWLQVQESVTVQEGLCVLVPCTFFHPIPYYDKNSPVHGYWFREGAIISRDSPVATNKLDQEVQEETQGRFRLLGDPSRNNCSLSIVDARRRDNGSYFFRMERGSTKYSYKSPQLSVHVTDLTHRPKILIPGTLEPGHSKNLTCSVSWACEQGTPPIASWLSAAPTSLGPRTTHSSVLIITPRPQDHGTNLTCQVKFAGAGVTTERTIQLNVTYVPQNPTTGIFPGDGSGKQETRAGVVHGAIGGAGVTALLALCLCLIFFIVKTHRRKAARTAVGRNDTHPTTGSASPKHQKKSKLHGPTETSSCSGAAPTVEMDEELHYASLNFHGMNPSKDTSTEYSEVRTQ

Sequence of human CD33 M120L (P20138 18-364 M120L limits assumed): as the sequence (P20138 18-364 F177A limits assumed) above, with M103L, A160F counted along it
Sequence of human CD33 M120A (P20138 18-364 M120A limits assumed): as the sequence (P20138 18-364 F177A limits assumed) above, with M103A, A160F counted along it
Sequence of human CD33 R109A (P20138 18-364 R109A limits assumed): as the sequence (P20138 18-364 F177A limits assumed) above, with R92A, A160F counted along it
Sequence of human CD33 L134Q (P20138 18-364 L134Q limits assumed): as the sequence (P20138 18-364 F177A limits assumed) above, with L117Q, A160F counted along it
Sequence of human CD33 R122I (P20138 18-364 R122I limits assumed): as the sequence (P20138 18-364 F177A limits assumed) above, with R105I, A160F counted along it
Sequence of human CD33 D95A (P20138 18-364 D95A limits assumed): as the sequence (P20138 18-364 F177A limits assumed) above, with D78A, A160F counted along it
Sequence of human CD33 R122F (P20138 18-364 R122F limits assumed): as the sequence (P20138 18-364 F177A limits assumed) above, with R105F, A160F counted along it
Sequence of human CD33 S131D (P20138 18-364 S131D limits assumed): as the sequence (P20138 18-364 F177A limits assumed) above, with S114D, A160F counted along it
Sequence of human CD33 L134I (P20138 18-364 L134I limits assumed): as the sequence (P20138 18-364 F177A limits assumed) above, with L117I, A160F counted along it
Sequence of human CD33 P132F (P20138 18-364 P132F limits assumed): as the sequence (P20138 18-364 F177A limits assumed) above, with P115F, A160F counted along it
Sequence of human CD33 S131T (P20138 18-364 S131T limits assumed): as the sequence (P20138 18-364 F177A limits assumed) above, with S114T, A160F counted along it
Sequence of human CD33 P132H (P20138 18-364 P132H limits assumed): as the sequence (P20138 18-364 F177A limits assumed) above, with P115H, A160F counted along it
T1 sequence (P20138 18-364 S124A limits assumed): as the sequence (P20138 18-364 F177A limits assumed) above, with S107A, A160F counted along it

Binder	Mean % WT Binding (human CD33 R109A) [% WT binding]	Mean % WT Binding (human CD33 D95A) [% WT binding]	Mean % WT Binding (human CD33 M120A) [% WT binding]	Mean % WT Binding (human CD33 M120L) [%]	Mean % WT Binding (human CD33 P132V) [%]	Mean % WT Binding (human CD33 P132K) [%]	Mean % WT Binding (human CD33 S131I) [%]	Mean % WT Binding (human CD33 S131N) [%]	Mean % WT Binding (human CD33 R122S) [%]	Mean % WT Binding (human CD33 P132F) [%]	Mean % WT Binding (human CD33 S131M) [%]	Mean % WT Binding (human CD33 R122G) [%]	Mean % WT Binding (human CD33 D51Y) [%]	Mean % WT Binding (human CD33 L134I) [%]	Mean % WT Binding (human CD33 K52Y) [%]	Mean % WT Binding (human CD33 R122F) [%]	Mean % WT Binding (human CD33 P132Y) [%]	Mean % WT Binding (human CD33 S131G) [%]	Mean % WT Binding (human CD33 L134T) [%]	Mean % WT Binding (human CD33 P132H) [%]	also measured
B1	107	86.3	76.3																		
B2				101	84.6	2.2	24	84.6	108	1.6	4.3	112	71.3	89.4	26.3	92.5	1.1	101	88.4	86.6	Mean % WT Binding (human CD33 R122I): 107%; Mean % WT Binding (human CD33 K52E): 121%; Mean % WT Binding (human CD33 S131D): 88.9%; Mean % WT Binding (human CD33 S131W): 1.1%; Mean % WT Binding (human CD33 D51N): 92.6%; Mean % WT Binding (human CD33 M120V): 97%; Mean % WT Binding (human CD33 S131T): 99.5%; Mean % WT Binding (human CD33 P132Q): 5.4%; Mean % WT Binding (human CD33 Y127E): 102%; Mean % WT Binding (human CD33 L134Q): 47.1%; Mean % WT Binding (human CD33 K52L): 99.4%; Mean % WT Binding (human CD33 K52S): 107%; Mean % WT Binding (human CD33 K52I): 71.6%; Mean % WT Binding (human CD33 S131Y): 24.5%; Mean % WT Binding (human CD33 K52D): 126%
B3																					Mean % WT Binding (human CD33 S124A): 98.2 % WT binding; Mean % WT Binding (human CD33 F177A): 48.7 % WT binding
B4	103	122	73.2																		
B5																					Mean % WT Binding (human CD33 S124A): 79.4 % WT binding; Mean % WT Binding (human CD33 F177A): 57.3 % WT binding
B6				103	86.9	97.1	84.8	101	90.6	68.5	83.8	94.9	57.1	92.9	2	90.1	84.3	97.1	96.5	88.2	Mean % WT Binding (human CD33 R122I): 86.1%; Mean % WT Binding (human CD33 K52E): 13.8%; Mean % WT Binding (human CD33 S131D): 102%; Mean % WT Binding (human CD33 S131W): 94.5%; Mean % WT Binding (human CD33 D51N): 89.4%; Mean % WT Binding (human CD33 M120V): 85.9%; Mean % WT Binding (human CD33 S131T): 89%; Mean % WT Binding (human CD33 P132Q): 88.4%; Mean % WT Binding (human CD33 Y127E): 93.9%; Mean % WT Binding (human CD33 L134Q): 62.2%; Mean % WT Binding (human CD33 K52L): 2.2%; Mean % WT Binding (human CD33 K52S): 3.8%; Mean % WT Binding (human CD33 K52I): 1.9%; Mean % WT Binding (human CD33 S131Y): 89.5%; Mean % WT Binding (human CD33 K52D): 3.2%
